# Assay results: patent US20240218030A1 (CELLEMEDY, published 2024)
# B1: huHF_Mutant2-dual (designed binder)
# chain: MTTASTSQVRQNYHAASEAAINAQINLELYASYVYLSMSYYFDRDDVALKNFAKYFLHQSHEEREHAEKLMKLQNQRGGRIALADIQKPDCDDGGSYGSLYAFDIWESGLNAMECALHLEKNVNQSLLALHALATAKNDPHLCDFIETHYLNEQVKAIKELGDHVTNLRKMGAPESGLAEYLFDKHTLGDSDNESMPSFITLASLSTWEGYFDF
# notes: Self-assembled ferritin nanoparticle of 24 monomers
# Target: T1, human transferrin receptor-Fc tag standard (human, UniProt P02786 89-760, limits assumed)
# T1 construct: Reagent coated on the ELISA plate at 2 ug/ml; also called hTfR; hTER; not shown: Fc tag
# T1 sequence (P02786 89-760 limits assumed): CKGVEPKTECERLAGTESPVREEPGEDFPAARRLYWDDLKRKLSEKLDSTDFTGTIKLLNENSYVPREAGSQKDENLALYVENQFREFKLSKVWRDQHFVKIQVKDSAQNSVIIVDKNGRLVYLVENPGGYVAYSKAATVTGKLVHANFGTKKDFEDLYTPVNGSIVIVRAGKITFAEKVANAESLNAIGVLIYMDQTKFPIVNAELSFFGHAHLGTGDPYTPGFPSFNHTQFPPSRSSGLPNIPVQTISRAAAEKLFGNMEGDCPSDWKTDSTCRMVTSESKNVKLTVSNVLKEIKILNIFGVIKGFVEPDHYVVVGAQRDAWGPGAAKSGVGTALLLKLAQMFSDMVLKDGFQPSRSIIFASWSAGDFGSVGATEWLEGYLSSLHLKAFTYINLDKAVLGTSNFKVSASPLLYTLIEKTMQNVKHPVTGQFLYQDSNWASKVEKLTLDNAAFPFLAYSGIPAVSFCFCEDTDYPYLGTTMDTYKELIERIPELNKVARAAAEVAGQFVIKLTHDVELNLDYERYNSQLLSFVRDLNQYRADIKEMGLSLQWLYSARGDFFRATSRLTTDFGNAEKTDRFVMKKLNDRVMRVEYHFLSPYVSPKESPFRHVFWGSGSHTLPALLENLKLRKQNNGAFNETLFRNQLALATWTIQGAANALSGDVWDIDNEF
# Test: ELISA on plate-coated human TfR-Fc with anti-His detection; Kd calculated from an expected saturation point, since the curve was not saturated at 10000 nM
# Method: Then, it was washed 3 times with 200 μl of PBST (PBS+Tween0.05%). An antibody (mouse anti-His tag antibody, Hisprobe) that specifically binds to the hexa-His tag was diluted 1/1000 in PBST, and the diluted solution was treated by 100 μl at room temperature for 1 hour.
# Then, it was washed 3 times with 200 μl of PBST (PBS+Tween0.05%). TMB solution expressing coloration by reacting with HRP was treated by 100 μl at room temperature for 15 minutes. After 50 μl of 1M H₂SO₄ solution was treated, optical density was measured with TECAN at a wavelength of 450 nm. This was calculated using the Langmuir equation (Table 4, FIGS. 4 to 6).
# FIG. 7 illustrates results of evaluation/comparison of the binding force of huHF_mutant1-dual and huHF_mutant2-dual to hTfR.
binder,measurement,value
B1,Kd,~4.4 µM
